Reference: publication PMC13137875
“And” between values parts separate entries of the source, which are not always exact repeats. Equal values may be shown once.

Tests used:
[1] = target: Rabbit skeletal muscle actin (G-actin) (rabbit) (UniProt P68135); assay: SEC-SAXS
[2] = target: G-actin (Oryctolagus cuniculus) (UniProt P68135); settings: cited from earlier work

R. bellii MBP-Sca2/6 (maltose-binding protein tagged passenger domain of Sca2/6) (domain or fragment)
stoichiometry N [1]: 1

Sca2 (from UniProt Q92JF7)
Kd [2]: 20 nM and 200 nM
